The record followed here is US20210196806A1.

This assay addresses CD8+ T cells among expanded tumor infiltrating lymphocytes (TIL) of a lung adenocarcinoma patient (H). The assay can be described thus: flow cytometry, tetramer staining of expanded TILs of one patient. (Flow cytometry measures light scatter and fluorescence of single cells or particles in a stream.)

Substance “KRAS-G12V/HLA-A*11:01 tetramer (from UniProt P61769 21-119) (peptide-MHC)” yielded a percent of CD8+ T cells binding the tetramer greater than 66%.
